Patent US12630850B2, “Enzymatic break down of chlorogenic acid in sunflower-containing products” (Chapman University, priority 2022, dated 2026)
Where “and” joins values, the source holds several entries; their conditions need not be identical. Equal values may be shown once.

What was measured:
[1] = HPLC quantification of CGA in sunflower butter cookies; format: biochemical; conditions: SFB cookies; both levels, 1.72×10^−1 and 1.72×10^−2 mg/g butter
Excerpt: Cookie formulations and baking conditions. The cookie dough formulation consisted of baking soda (2.2 g), salt (2.2 g), whole egg (46.8 g), maple syrup (76.3 g), vanilla extract (2.2 g), flour (145.8 g), and butter (87.5 g). CGA esterase treatments in SFF, utilized almond butter instead of SFB. The wet (sunflower or almond butter, maple syrup, eggs, and vanilla extract) and dry (flour, baking soda, and salt) ingredients were mixed separately and subsequently combined and mixed for 75 s with an electric hand mixer. The dough was rolled out and cut to the following dimensions: 6 mm thickness and 40 mm diameter. Cookies were baked for 7 min in a convection oven preheated to 149° C. (300° F.) and allowed to cool at room temperature for 10 min before further analysis.
Preparation of sunflower butter cookies with chlorogenic acid/CGA esterase. […]
High-performance liquid chromatography (HPLC) quantification of phenolic content in sunflower cookies. […] The extract was filtered through 0.20 μm syringe filters and analyzed with an Agilent 1260 Infinity II system (Agilent Technologies) equipped with a quaternary pump (G7111B), vial sampler (G7129A), and diode array detector (HS G7117C). […] CGA and caffeic acid concentrations were detected at 320 nm and quantified using a standard curve between 0.00-0.10 mg ml^−1 CGA (y=172287x, R^2=0.994) and caffeic acid (y=248557x, R^2=0.967).

[2] = Michaelis-Menten assay of CGA hydrolysis in buffer (absorption spectroscopy); format: biochemical; conditions: for kcat: CGA in buffer, room temperature
Method: Enzymatic assays to determine Michaelis-Menten parameters. Michaelis-Menten assays were conducted at 21° C. using an Agilent Technologies Cary 60 UV-Vis spectrophotometer. A stock solution of CGA was prepared by dissolving CGA in 50 mM HEPES pH 8.0 followed by calculation of concentration using the Lambert-Beer law with an extinction coefficient of 17,194 M^−1 cm^−1 at 330 nm. Subsequent dilutions of stock CGA were prepared to achieve final CGA concentrations of 0.02 mM, 0.04 mM, 0.06 mM, 0.10 mM, 0.20 mM, and 0.40 mM CGA. The final CGA esterase concentration in all enzymatic assays was 10 nM unless noted otherwise. All samples used for enzymatic assays were buffered in 50 mM HEPES, pH 8.0. Absorption scans were taken at 0.05 or 0.1 min intervals for 2 min between wavelengths of 250 nm and 400 nm. For CGA concentrations below 0.1 mM, the pathlength was 1 cm. Above 0.1 mM CGA, the pathlength was 0.5 cm.
To measure CGA depletion (Δ[CGA]), Equation 1 was used: […]
A is the absorbance at any time point in the reaction, Ao is the initial absorbance, εCA and εCGA are the extinction coefficients at 340 nm of caffeic acid (CA) and CGA, which are 4.15 mM^−1 cm^−1 and 14.43 mM^−1 cm^−1, respectively. To generate initial rates, (Δ[CGA]| was plotted against time. The change in absorbance during the first minute of the reaction was fit to a linear curve, which is used to generate the reaction rate. We note that the rate of CGA depletion is equivalent to CA formation. To test the effect of salt on enzyme kinetics, the same procedure was used, except that the experiment was run with 0.04 mM CGA buffered in 50 mM HEPES pH 8.0 with 500 mM NaCl.
Temperature-dependence measurements. A circulating water bath was used to run enzymatic reactions at different temperatures to maintain the temperature in the spectrophotometer within 1° C. of the target temperature. Buffered solution, CGA, and CGA esterase samples were pre-incubated for 10 min at the desired temperature before starting a measurement. All other instrument parameters were the same as for room temperature measurements described above.

[3] = CGA in 50 mM HEPES pH 8.0, 20° C.

B1: CGA esterase: CGA esterase from L. helveticus (Genbank ID: WP_025283955.1, Uniprot ID: U6F2K7), expressed in Escherichia coli; the dimer is the active form (protein, listed as Lactobacillus helveticus)
chain: MSRITIERDGLTLVGDREEPFGEIYDMAIIMHGFAANRNTDLLRQIADDLRDENVASVRFDFNGHGESDGKFEDMTVCNEIADGKAILDYVRTDPHVRDIFLVGHSQGGVVASMLAGLYPDVVKKVVLLAPAAQLKDDALRSNTQGATYDPNHIPDWPLVGNKLGMKLGGFYLRTAQVLPIYEVSQCFTRPVSVIAGTNDQWDPKYAKKYDEVYENSELHMIPNADHRFSGGYKDMAADLTAQFLKPAF
- Decrease of CGA concentration [1]: 90-95%
- Temperature until which the enzyme is active [2]: at least 50 °C
- Change of CGA esterase activity with temperature ([2]; 20° C. to 50° C.): increases only weakly
- Km ([2]; 40° C.): 96 ± 6 µM
- Vmax ([2]; 40° C.): 215.4 ± 31.7 mM/min/mg
- Km [2, 3]: 90 ± 38 µM
- Vmax [2, 3]: 170.2 ± 32.3 mM/min/mg
- Vmax ([2]; CGA in 50 mM HEPES pH 8.0, 20° C., listed as L. helveticus): 170.2 mM/min/mg
- kcat [2]: 82 s⁻¹ and 82 ± 15.6 s⁻¹
- kcat ([2]; listed as L. helveticus CGA esterase): 82 s⁻¹
- kcat ([2]; listed as chlorogenic acid esterase from Lactobacillus helveticus): 82 s⁻¹
- Vmax higher than previously reported ([2]; vs Song & Baik, 2017): 300 fold
